B1: glmS ribozyme (parent)
chain: AUAAAAGCGCCAGAACUACAGAAAUGUAGUUGACGAGGAGGAGGUUUAUCGAAUUUUCGGCGGAUGCCUCCAAA

± gives the standard error. Fewer inactive variants are shown than the library holds.

In one data set the parent is B1. In words: self-cleavage kobs at 2500 uM GlcN6P; higher = faster cleavage; RNA array. Particulars: with glucosamine-6-phosphate. Summed up: (§1)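 kobs was derived by fitting per-tile medians to one- or two-exponential decays after normalising signals to baseline and to non-cleaving reference variants. Those signals came from barcoded ribozyme variants transcribed in situ by E. coli RNA polymerase on sequenced MiSeq chips, followed through a hybridised Cy3 probe at 37 °C and imaged over ~14 h. Glucosamine-6-phosphate (40 μM to 10 mM) in HEPES/KCl/Mg(OAc)2 buffer was flowed in. Weighted Michaelis–Menten fits across concentrations then gave kcat and KM.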
Consider AUAAAAGCGCCAGAACUACAGAAAUGUACUUGACGAGGAGGAGGUUUAUCGGAUUUUCGGCGGAUGUCUCCAAA [G29C A52G C67U], for which the “self-cleavage kobs at 2500 uM GlcN6P” value came to 7.8e-05 ± 2.1e-05 s⁻¹.
Regarding AUAAAAGCGCCAGAACUACAGAAAUGUAGAUGACGAGGAGGAUGUUUAUCGAAUUUUCGGAGGAUGCCUCUAAA [U30A G43U C61A C71U], the “self-cleavage kobs at 2500 uM GlcN6P” value is less than 1e-05 s⁻¹.
As for AUAAAAGCGCCAGAGCUACAGAAAUGUAGUUGAGGAGGAGGUGGUUUAUCGAAUUUUCGGCGGAUGGCUCCAAA [A15G C34G A42U C67G], the “self-cleavage kobs at 2500 uM GlcN6P” value was less than 1e-05 s⁻¹.
On to AUAAAAGCGCCAGAUCUACAGAAAUGUAGUUGACGAGGAGUGGGUUUAUCGAAUUUCCGGCGGAUGCCUACAAA [A15U G41U A42G U57C C70A], for which the “self-cleavage kobs at 2500 uM GlcN6P” value turned out to be 7.37e-05 ± 2.1e-05 s⁻¹.
In the case of AUAAAAGCGCCAGAACUACAGAAAUGUAGUUGACGAGGAGAAGGUUUUUCGAAUUUCCGAUGGAUGUCUCGAAA [G41A A48U U57C G60A C61U C67U C71G], the “self-cleavage kobs at 2500 uM GlcN6P” value was less than 1e-05 s⁻¹.
Same read-out and setting: the figure for AUAAAAGCGCCAGAACUACAGAAAUGUAGUUGACGAGGAGGAGGCUUAUCGUAUUUUCGGCGGAUGCUUCCAAA [U45C A52U C68U] is less than 1e-05 s⁻¹.
Take AUAAAAGCGCCAGAACUACAGAAAUGUAGUUGACGAGGAGGAGGUUUAUAGAUUUUUCGGCGGAUGUGUCCAAA [C50A A53U C67U C68G]: the “self-cleavage kobs at 2500 uM GlcN6P” value was 4.54e-05 ± 2.1e-05 s⁻¹.
Regarding AUAAAAGCCCCAGAAGUACAGAAAUGUAGUUGACGAGGGGGAGGUUUAUCGAAUUUUCGGCGGAUGCCUCCAAA [G9C C16G A39G], the “self-cleavage kobs at 2500 uM GlcN6P” value is less than 1e-05 s⁻¹.
For AUAAAAGCGCCAGUACUACAGAAAUGUAGGUGACGAGAAGGAGGUUUAUCGAAUUUUCGGCGGAUGCCGCCAAA [A14U U30G G38A U69G], the “self-cleavage kobs at 2500 uM GlcN6P” value was found to be 0.00012 ± 5.3e-05 s⁻¹.
Regarding AUAAAAGCGCCAGAACUACAGAAAUGUAGGUGACGAGGAGUAGUUUUAUCGAAUUUUCGGCGGAUGCCUCCAAA [U30G G41U G44U], the “self-cleavage kobs at 2500 uM GlcN6P” value was less than 1e-05 s⁻¹.
Take AUAAAAGCUCCAUAACUACAGAAAUGUACUUCGCGAGGAGGAGGUUUAUCGAAUUUUCGGCGGAUGCCUCCAAA [G9U G13U G29C G32C A33G]: the “self-cleavage kobs at 2500 uM GlcN6P” value is less than 1e-05 s⁻¹.
On the same count and under the same terms, the value for AUAAAAGCGCCUGAACUACAGAAAUGUAGUUGACGAGGAGGAGGUUUAUCGAAAUUUCGCCGGAAGCCUCCAAA [A12U U54A G60C U65A] was less than 1e-05 s⁻¹.
Take AUAAAAGCGCCAGAACUACAGAAAUGUAGUUGACGAGGACGAGGUUUAUCGGAUUUUCGACGGAUGCCUCCAAA [G40C A52G G60A]: the “self-cleavage kobs at 2500 uM GlcN6P” value is less than 1e-05 s⁻¹.
The same measure, in the same setting: the value for AUAAAAGCGCCAGAACUACAGAAAUGUAGUUGACGAGGAAGACGUUUAUCGAAUUUUCGCCGGAUGUCUCCAAA [G40A G43C G60C C67U] was less than 1e-05 s⁻¹; that for AUAAAAGAGCCAGAACUACAGAAAUGUAGUUGACGAGGAGGAGGUUUAUUGAAUUUUCGGCGGUUGCCUCCAAA [C8A C50U A64U] was less than 1e-05 s⁻¹.
In the case of AUAAAAGCGCCAGAACUACAGAAAUGUACUUGAUGAUGAGGAGGUUUAUCGAAUUUUCGGCGGAUGCCUUCAAA [G29C C34U G37U C70U], the “self-cleavage kobs at 2500 uM GlcN6P” value is 0.000116 ± 3.3e-05 s⁻¹.
On to AUAAAAGCGCCAUAACUACAGAAAUGUAGUUGACGAGGAGGCGGUUUAUCGAAUUUUCGGCGGAUGCCACCAAA [G13U A42C U69A], for which the “self-cleavage kobs at 2500 uM GlcN6P” value was less than 1e-05 s⁻¹.
Regarding AUAAAAGCGCCAGAAUUACAGAAAUGUAGUUGACGAGGAGGAGGUUUAUCGAAUUUACGGCGGAUGCCUGCAAA [C16U U57A C70G], the “self-cleavage kobs at 2500 uM GlcN6P” value stood at 5.1e-05 ± 2.1e-05 s⁻¹.
As to AUAAAAGCGCUAGAACUACAGAAAUGUAGGUGACGAGGAGGAGGGUUAUCGAAUUUUCGGCGGAUGCCUCCAAA [C11U U30G U45G], the “self-cleavage kobs at 2500 uM GlcN6P” value amounted to 0.000105 ± 4e-05 s⁻¹.
Regarding AUAAAAGCGCCAGAAAUACAGAAAUGUAGUUGACGAGGAGGAGGUUUAUCGUAUUUUCGGCGGAUGCCUGCAAA [C16A A52U C70G], the “self-cleavage kobs at 2500 uM GlcN6P” value is 0.0002 ± 9.8e-05 s⁻¹.
As to AUAAAAGCGCCGGAACUACAGAAAUGUACUUGACUAGGUGCAGGUUUAUCGAAUUUUCGGCGGGUGCCUCCAAA [A12G G29C G35U A39U G41C A64G], the “self-cleavage kobs at 2500 uM GlcN6P” value was less than 1e-05 s⁻¹.
Same read-out and setting: the value for AUAAAAGCGCUAGAACUACAGAAAUGUAGUUGACGAGGAGGAGUUUUAUCGAAUUUUCGGCGGAUGCCGCCAAA [C11U G44U U69G] was less than 1e-05 s⁻¹; that for AUAAAAGCGCCAGAACUACAGAAAUGUAGUUGACGAGGAGGAGGUCUAUCGAAUUUUCGUCUCAUGCCUCCAAA [U46C G60U G62U G63C] was less than 1e-05 s⁻¹.
As to AUAAAGGCGCCAGAACUACAGAAAUGUAGUUGACGAGGAGGAGGUUUAUCGAAUUUUCGGCGGACGCUUCCAAA [A6G U65C C68U], the “self-cleavage kobs at 2500 uM GlcN6P” value was less than 1e-05 s⁻¹.
As to AUAAAAGCGCCAGAUCUACAGAAAUGUAGUUGACGAGGAGGAGGUUUAUCGAACUUUCGGCGGAAGCCUCCAAA [A15U U54C U65A], the “self-cleavage kobs at 2500 uM GlcN6P” value turned out to be 0.000123 ± 2.8e-05 s⁻¹.
On the same count and under the same terms, the value for AUAAAAGCGCCAGAACUACAGAAAUGUAGUUCACGAGGAGGAGGUUUAUCGAACUUUCGGCGGAUGCCUCCAAA [G32C U54C] was 1.41e-05 ± 5.6e-06 s⁻¹; that for AUAAAUGCGCCCGAACUACAGAAAUGUAGUUGAUGAGGAGGAGGUUUGUCGAAUUUUCGGGGGUUGCCUCCAAA [A6U A12C C34U A48G C61G A64U] was less than 1e-05 s⁻¹.
Regarding AUAAAAGCGCCAGGACUACAGAAAUGUAGUUGACGAGGAGGGGGUUUAUCGUAUUUUCGGCGGAUGCCUCCAAA [A14G A42G A52U], the “self-cleavage kobs at 2500 uM GlcN6P” value worked out at 9.16e-05 ± 3.3e-05 s⁻¹.
As for AUAAAAGCGCCGGAACUACAGAAAUGUAUUUGACGAGGAGGAGGUUUAUCGAAUUUUAUGCGGAUGACUCCAAA [A12G G29U C58A G59U C67A], the “self-cleavage kobs at 2500 uM GlcN6P” value was less than 1e-05 s⁻¹.
AUAAAAGCGCCAGAGCUACAGAAAUGUAGUUAACGAGGAGGAGGUUUAUCGAAUUUUGGGCGGAUGCCUCCAAA [A15G G32A C58G]: the “self-cleavage kobs at 2500 uM GlcN6P” value turned out to be 8.81e-05 ± 2.9e-05 s⁻¹.
In the case of AUAAAAGCGCCAGAACUACAGAAAUGUAGUUGACGAGCAGGAGGUUUAUCGAAUUUUCCGCGGAUGCCUCGAAA [G38C G59C C71G], the “self-cleavage kobs at 2500 uM GlcN6P” value is less than 1e-05 s⁻¹.
Same read-out and setting: the value for AUAAAAGCGCCAGUACUACAGAAAUGUAGUUGACGAGGAGGAUGUUUAUCGAAUUUUCGGCGGAUGCGUCCAAA [A14U G43U C68G] was 0.0033 ± 0.00062 s⁻¹; that for AUAAAAGCGCCAAAACUACAGAAAUGUAGUUGACGAGGAGGAGGUUUAUCGAAUUUUCGGCGGCUGCCUCUAAA [G13A A64C C71U] was less than 1e-05 s⁻¹.

Variants of B1 are the subject of the next data set. Nature of the data set: self-cleavage kobs at 10000 uM GlcN6P; higher = faster cleavage; RNA array. Particulars: with glucosamine-6-phosphate. Summed up: as §1
Turning to AUAAAAGCGCCAGAACUACAGAAAUGUAGUUGACGAGGAAGACGUUUAUCGAAUUUUCGCCGGAUGUCUCCAAA [G40A G43C G60C C67U], the “self-cleavage kobs at 10000 uM GlcN6P” value was less than 1e-05 s⁻¹.
In the case of AUAAAAGCGCCAGAACUACAGAAAUGUACUUGAUGAUGAGGAGGUUUAUCGAAUUUUCGGCGGAUGCCUUCAAA [G29C C34U G37U C70U], the “self-cleavage kobs at 10000 uM GlcN6P” value stood at 3.91e-05 ± 1.8e-05 s⁻¹.
For the variant AUAAAAGCGCCAGAUCUACAGAAAUGUAGUUGACGAGGAGGAGGUUUAUCGAACUUUCGGCGGAAGCCUCCAAA [A15U U54C U65A], the “self-cleavage kobs at 10000 uM GlcN6P” value came out at 0.000335 ± 3.8e-05 s⁻¹.
On the same count and under the same terms, the value for AUAAAAGCGCCAGAACUACAGAAAUGUAGUUCACGAGGAGGAGGUUUAUCGAACUUUCGGCGGAUGCCUCCAAA [G32C U54C] was 8.23e-05 ± 1.2e-05 s⁻¹.
